T1: PYR1 (Arabidopsis thaliana, UniProt O49686)
T1 construct: expressed in transfected cells; host or cells: S. cerevisiae strain Y190
T1 sequence (O49686 1-191): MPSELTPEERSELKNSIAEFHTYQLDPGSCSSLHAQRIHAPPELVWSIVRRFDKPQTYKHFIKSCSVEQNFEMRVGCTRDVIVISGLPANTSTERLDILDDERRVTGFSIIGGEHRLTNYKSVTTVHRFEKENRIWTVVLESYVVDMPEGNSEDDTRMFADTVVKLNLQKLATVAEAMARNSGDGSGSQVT

B1: R389Y: HAB1 mutant (protein, UniProt Q9CAJ0 23-511, looked up, variant R389Y)
Protein phosphatase 2C 16: SPVEITQLKNVTDAADLLSDSENQSFCNGGTECTMEDVSELEEVGEQDLLKTLSDTRSGSSNVFDEDDVLSVVEDNSAVISEGLLVVDAGSELSLSNTAMEIDNGRVLATAIIVGESSIEQVPTAEVLIAGVNQDTNTSEVVIRLPDENSNHLVKGRSVYELDCIPLWGTVSIQGNRSEMEDAFAVSPHFLKLPIKMLMGDHEGMSPSLTHLTGHFFGVYDGHGGHKVADYCRDRLHFALAEEIERIKDELCKRNTGEGRQVQWDKVFTSCFLTVDGEIEGKIGRAVVGSSDKVLEAVASETVGSTAVVALVCSSHIVVSNCGDSRAVLFRGKEAMPLSVDHKPDREDEYARIENAGGKVIQWQGAYVFGVLAMSRSIGDRYLKPYVIPEPEVTFMPRSREDECLILASDGLWDVMNNQEVCEIARRRILMWHKKNGAPPLAERGKGIDPACQAAADYLSMLALQKGSKDNISIIVIDLKAQRKFKTRT
B2: R389K: HAB1 mutant (protein, UniProt Q9CAJ0 23-511, looked up, variant R389K)
Protein phosphatase 2C 16: SPVEITQLKNVTDAADLLSDSENQSFCNGGTECTMEDVSELEEVGEQDLLKTLSDTRSGSSNVFDEDDVLSVVEDNSAVISEGLLVVDAGSELSLSNTAMEIDNGRVLATAIIVGESSIEQVPTAEVLIAGVNQDTNTSEVVIRLPDENSNHLVKGRSVYELDCIPLWGTVSIQGNRSEMEDAFAVSPHFLKLPIKMLMGDHEGMSPSLTHLTGHFFGVYDGHGGHKVADYCRDRLHFALAEEIERIKDELCKRNTGEGRQVQWDKVFTSCFLTVDGEIEGKIGRAVVGSSDKVLEAVASETVGSTAVVALVCSSHIVVSNCGDSRAVLFRGKEAMPLSVDHKPDREDEYARIENAGGKVIQWQGAKVFGVLAMSRSIGDRYLKPYVIPEPEVTFMPRSREDECLILASDGLWDVMNNQEVCEIARRRILMWHKKNGAPPLAERGKGIDPACQAAADYLSMLALQKGSKDNISIIVIDLKAQRKFKTRT
B3: R389D: HAB1 mutant (protein, UniProt Q9CAJ0 23-511, looked up, variant R389D)
Protein phosphatase 2C 16: SPVEITQLKNVTDAADLLSDSENQSFCNGGTECTMEDVSELEEVGEQDLLKTLSDTRSGSSNVFDEDDVLSVVEDNSAVISEGLLVVDAGSELSLSNTAMEIDNGRVLATAIIVGESSIEQVPTAEVLIAGVNQDTNTSEVVIRLPDENSNHLVKGRSVYELDCIPLWGTVSIQGNRSEMEDAFAVSPHFLKLPIKMLMGDHEGMSPSLTHLTGHFFGVYDGHGGHKVADYCRDRLHFALAEEIERIKDELCKRNTGEGRQVQWDKVFTSCFLTVDGEIEGKIGRAVVGSSDKVLEAVASETVGSTAVVALVCSSHIVVSNCGDSRAVLFRGKEAMPLSVDHKPDREDEYARIENAGGKVIQWQGADVFGVLAMSRSIGDRYLKPYVIPEPEVTFMPRSREDECLILASDGLWDVMNNQEVCEIARRRILMWHKKNGAPPLAERGKGIDPACQAAADYLSMLALQKGSKDNISIIVIDLKAQRKFKTRT
B4: F391D: HAB1 mutant (protein, UniProt Q9CAJ0 23-511, looked up, variant F391D)
Protein phosphatase 2C 16: SPVEITQLKNVTDAADLLSDSENQSFCNGGTECTMEDVSELEEVGEQDLLKTLSDTRSGSSNVFDEDDVLSVVEDNSAVISEGLLVVDAGSELSLSNTAMEIDNGRVLATAIIVGESSIEQVPTAEVLIAGVNQDTNTSEVVIRLPDENSNHLVKGRSVYELDCIPLWGTVSIQGNRSEMEDAFAVSPHFLKLPIKMLMGDHEGMSPSLTHLTGHFFGVYDGHGGHKVADYCRDRLHFALAEEIERIKDELCKRNTGEGRQVQWDKVFTSCFLTVDGEIEGKIGRAVVGSSDKVLEAVASETVGSTAVVALVCSSHIVVSNCGDSRAVLFRGKEAMPLSVDHKPDREDEYARIENAGGKVIQWQGARVDGVLAMSRSIGDRYLKPYVIPEPEVTFMPRSREDECLILASDGLWDVMNNQEVCEIARRRILMWHKKNGAPPLAERGKGIDPACQAAADYLSMLALQKGSKDNISIIVIDLKAQRKFKTRT
B5: F391P: HAB1 mutant (protein, UniProt Q9CAJ0 23-511, looked up, variant F391P)
Protein phosphatase 2C 16: SPVEITQLKNVTDAADLLSDSENQSFCNGGTECTMEDVSELEEVGEQDLLKTLSDTRSGSSNVFDEDDVLSVVEDNSAVISEGLLVVDAGSELSLSNTAMEIDNGRVLATAIIVGESSIEQVPTAEVLIAGVNQDTNTSEVVIRLPDENSNHLVKGRSVYELDCIPLWGTVSIQGNRSEMEDAFAVSPHFLKLPIKMLMGDHEGMSPSLTHLTGHFFGVYDGHGGHKVADYCRDRLHFALAEEIERIKDELCKRNTGEGRQVQWDKVFTSCFLTVDGEIEGKIGRAVVGSSDKVLEAVASETVGSTAVVALVCSSHIVVSNCGDSRAVLFRGKEAMPLSVDHKPDREDEYARIENAGGKVIQWQGARVPGVLAMSRSIGDRYLKPYVIPEPEVTFMPRSREDECLILASDGLWDVMNNQEVCEIARRRILMWHKKNGAPPLAERGKGIDPACQAAADYLSMLALQKGSKDNISIIVIDLKAQRKFKTRT
B6: R389H: HAB1 mutant (protein, UniProt Q9CAJ0 23-511, looked up, variant R389H)
Protein phosphatase 2C 16: SPVEITQLKNVTDAADLLSDSENQSFCNGGTECTMEDVSELEEVGEQDLLKTLSDTRSGSSNVFDEDDVLSVVEDNSAVISEGLLVVDAGSELSLSNTAMEIDNGRVLATAIIVGESSIEQVPTAEVLIAGVNQDTNTSEVVIRLPDENSNHLVKGRSVYELDCIPLWGTVSIQGNRSEMEDAFAVSPHFLKLPIKMLMGDHEGMSPSLTHLTGHFFGVYDGHGGHKVADYCRDRLHFALAEEIERIKDELCKRNTGEGRQVQWDKVFTSCFLTVDGEIEGKIGRAVVGSSDKVLEAVASETVGSTAVVALVCSSHIVVSNCGDSRAVLFRGKEAMPLSVDHKPDREDEYARIENAGGKVIQWQGAHVFGVLAMSRSIGDRYLKPYVIPEPEVTFMPRSREDECLILASDGLWDVMNNQEVCEIARRRILMWHKKNGAPPLAERGKGIDPACQAAADYLSMLALQKGSKDNISIIVIDLKAQRKFKTRT
B7: R389F: HAB1 mutant (protein, UniProt Q9CAJ0 23-511, looked up, variant R389F)
Protein phosphatase 2C 16: SPVEITQLKNVTDAADLLSDSENQSFCNGGTECTMEDVSELEEVGEQDLLKTLSDTRSGSSNVFDEDDVLSVVEDNSAVISEGLLVVDAGSELSLSNTAMEIDNGRVLATAIIVGESSIEQVPTAEVLIAGVNQDTNTSEVVIRLPDENSNHLVKGRSVYELDCIPLWGTVSIQGNRSEMEDAFAVSPHFLKLPIKMLMGDHEGMSPSLTHLTGHFFGVYDGHGGHKVADYCRDRLHFALAEEIERIKDELCKRNTGEGRQVQWDKVFTSCFLTVDGEIEGKIGRAVVGSSDKVLEAVASETVGSTAVVALVCSSHIVVSNCGDSRAVLFRGKEAMPLSVDHKPDREDEYARIENAGGKVIQWQGAFVFGVLAMSRSIGDRYLKPYVIPEPEVTFMPRSREDECLILASDGLWDVMNNQEVCEIARRRILMWHKKNGAPPLAERGKGIDPACQAAADYLSMLALQKGSKDNISIIVIDLKAQRKFKTRT
B8: R389E: HAB1 mutant (protein, UniProt Q9CAJ0 23-511, looked up, variant R389E)
Protein phosphatase 2C 16: SPVEITQLKNVTDAADLLSDSENQSFCNGGTECTMEDVSELEEVGEQDLLKTLSDTRSGSSNVFDEDDVLSVVEDNSAVISEGLLVVDAGSELSLSNTAMEIDNGRVLATAIIVGESSIEQVPTAEVLIAGVNQDTNTSEVVIRLPDENSNHLVKGRSVYELDCIPLWGTVSIQGNRSEMEDAFAVSPHFLKLPIKMLMGDHEGMSPSLTHLTGHFFGVYDGHGGHKVADYCRDRLHFALAEEIERIKDELCKRNTGEGRQVQWDKVFTSCFLTVDGEIEGKIGRAVVGSSDKVLEAVASETVGSTAVVALVCSSHIVVSNCGDSRAVLFRGKEAMPLSVDHKPDREDEYARIENAGGKVIQWQGAEVFGVLAMSRSIGDRYLKPYVIPEPEVTFMPRSREDECLILASDGLWDVMNNQEVCEIARRRILMWHKKNGAPPLAERGKGIDPACQAAADYLSMLALQKGSKDNISIIVIDLKAQRKFKTRT
B9: R389G: HAB1 mutant (protein, UniProt Q9CAJ0 23-511, looked up, variant R389G)
Protein phosphatase 2C 16: SPVEITQLKNVTDAADLLSDSENQSFCNGGTECTMEDVSELEEVGEQDLLKTLSDTRSGSSNVFDEDDVLSVVEDNSAVISEGLLVVDAGSELSLSNTAMEIDNGRVLATAIIVGESSIEQVPTAEVLIAGVNQDTNTSEVVIRLPDENSNHLVKGRSVYELDCIPLWGTVSIQGNRSEMEDAFAVSPHFLKLPIKMLMGDHEGMSPSLTHLTGHFFGVYDGHGGHKVADYCRDRLHFALAEEIERIKDELCKRNTGEGRQVQWDKVFTSCFLTVDGEIEGKIGRAVVGSSDKVLEAVASETVGSTAVVALVCSSHIVVSNCGDSRAVLFRGKEAMPLSVDHKPDREDEYARIENAGGKVIQWQGAGVFGVLAMSRSIGDRYLKPYVIPEPEVTFMPRSREDECLILASDGLWDVMNNQEVCEIARRRILMWHKKNGAPPLAERGKGIDPACQAAADYLSMLALQKGSKDNISIIVIDLKAQRKFKTRT
B10: R389I: HAB1 mutant (protein, UniProt Q9CAJ0 23-511, looked up, variant R389I)
Protein phosphatase 2C 16: SPVEITQLKNVTDAADLLSDSENQSFCNGGTECTMEDVSELEEVGEQDLLKTLSDTRSGSSNVFDEDDVLSVVEDNSAVISEGLLVVDAGSELSLSNTAMEIDNGRVLATAIIVGESSIEQVPTAEVLIAGVNQDTNTSEVVIRLPDENSNHLVKGRSVYELDCIPLWGTVSIQGNRSEMEDAFAVSPHFLKLPIKMLMGDHEGMSPSLTHLTGHFFGVYDGHGGHKVADYCRDRLHFALAEEIERIKDELCKRNTGEGRQVQWDKVFTSCFLTVDGEIEGKIGRAVVGSSDKVLEAVASETVGSTAVVALVCSSHIVVSNCGDSRAVLFRGKEAMPLSVDHKPDREDEYARIENAGGKVIQWQGAIVFGVLAMSRSIGDRYLKPYVIPEPEVTFMPRSREDECLILASDGLWDVMNNQEVCEIARRRILMWHKKNGAPPLAERGKGIDPACQAAADYLSMLALQKGSKDNISIIVIDLKAQRKFKTRT

Biological target: T1, PYR1
Experiment: Yeast two hybrid of pACT-HAB1 site saturation mutants with pBD-PYR1 on 10 μM ABA, β-galactosidase staining
Format: cell-based
Design: key: x: Mutations in HAB1 that disrupt HAB1 interaction with PYR1
Details: S. cerevisiae Y190, 10 μM ABA; dead = lack of detectable staining in comparison to wild type control
Outline: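 HAB1 (lacking three N-terminal residues) site-saturation mutants in pACT were co-transformed with pBD-PYR1 into S. cerevisiae Y190 and spotted on SD (-Leu,-Trp) with 10 μM ABA. After 2 days at 30 °C, chloroform-lysed colonies were stained for β-galactosidase; "dead" means no detectable staining versus wild-type pair.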

Molecule	Mutations in HAB1 that disrupt HAB1 interaction with PYR1
B1	x
B2	x
B3	x
B4	x
B5	x
B6	x
B7	x
B8	x
B9	x
B10	x

— patent US10919943B2, “Mutant proteins enabling agrochemical control of plant gene expression” (The Regents of the University of California, priority 2016, dated 2021)
